The target of the test is V5-UL56 (HCMV strain AD169), plasmid-expressed (human cytomegalovirus strain AD169).

In the case of “FLAG-UL51 (HCMV strain AD169), plasmid-expressed (natural protein)”, the percentage of transfected HEK-293 T cells with nuclear staining of UL56 by confocal microscopy, in the presence of UL51 (UL56 alone exclusively cytoplasmic) (% of cells with nuclear staining) is 62. In the case of “MYC-UL89 (HCMV strain AD169), plasmid-expressed (natural protein)”, the percentage of transfected HEK-293 T cells with nuclear staining of UL56 by confocal microscopy, in the presence of UL89 (UL56 alone exclusively cytoplasmic) (% of cells with nuclear staining) came to 37 and the percentage of transfected HEK-293 T cells with nuclear staining of UL89 by confocal microscopy, in the presence of UL56 (UL89 alone exclusively cytoplasmic) (% of cells with nuclear staining) worked out at 26.

For the origin of these results see article PMC3547700.
